Measured values taken from doi:10.1101/511345 (bioRxiv, 2019).

Assays:
cryo-EM structure = target: the molecule itself; test: cryo-EM structure
crystal structure = target: the molecule itself; test: crystal structure

Protein	stoichiometry N (cryo-EM structure)	stoichiometry N (crystal structure)
Quasibacillus thermotolerans (Qs) IMEF encapsulin capsid protein, assembled T = 4 shell (natural protein) MNKSQLYPDSPLTDQDFNQLDQTVIEAARRQLVGRRFIELYGPLGRGMQSVFNDIFMESHEAKMDFQGSFDTEVESSRRVNYTIPMLYKDFVLYWRDLEQSKALDIPIDFSVAANAARDVAFLEDQMIFHGSKEFDIPGLMNVKGRLTHLIGNWYESGNAFQDIVEARNKLLEMNHNGPYALVLSPELYSLLHRVHKDTNVLEIEHVRELITAGVFQSPVLKGKSGVIVNTGRNNLDLAISEDFETAYLGEEGMNHPFRVYETVVLRIKRPAAICTLIDPEE	240	
Qs IMEF cargo protein, purified alone and crystallised (natural protein) MKEELDAFHQIFTTTKEAIERFMAMLTPVIENAEDDHERLYYHHIYEEEEQRLSRLDVLIPLIEKFQDETDEGLFSPSNNAFNRLLQELNLEKFGLHNFIEHVDLALFSFTDEERQTLLKELRKDAYEGYQYVKEKLAEINARFDHDYADPHAHHDEHRDHLADMPSAGSSHEEVQPVAHKKKGFTVGSLIQ		2
